{"source": "the nanobody polyreactivity screen of Harvey et al. (2022)", "assay": "yeast display, Sf9 membrane polyspecificity reagent, FACS + sequencing; frameworks hold sequencing errors", "in_short": "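Nanobodies came from a synthetic yeast display library in Saccharomyces cerevisiae BJ5465, induced with galactose for 36–48 hours and stained for 1 hour at 4 °C with 10% biotinylated, detergent-solubilized Sf9 membrane reagent. Cells were enriched on streptavidin microbeads and then FACS-sorted, with low and high (top ~1%) gates set on anti-HA fluorescence for expression and streptavidin fluorescence for reagent binding. Each polyreactivity label reflects the gate a clone came from. Genes were amplified by colony PCR, sequenced by MiSeq 2 × 250 and filtered by CDR length.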", "data": [{"sequence": "QVQLVESGGGLVQAGGSLRLSCAASGFTFYGYAMGWYRQAPGKERELVAAISSSGTSTYYADSVKGRFTISRDNEKNTVYLQMNSLKPEDTAVYYCAKDFYRRYYSWGQGTQVTVSS", "values": [{"measurement": "polyreactivity (PSR sort gate)", "value": "high polyreactivity"}]}, {"sequence": "QVQLVESGGGVVQAGGSLRLSCAASGRIFSSYAMGWYRQAPGKERELVAAITSGGSTDYADSVKGRFSISRDNAKNTVYLQMNSLKPEDTAVYYCAKAFLAPWTYSPYYMFYYWGQGTQVTVSS", "values": [{"measurement": "polyreactivity (PSR sort gate)", "value": "low polyreactivity"}]}, {"sequence": "QVQLVESGGGLVQAGGSLRISCAASGLIFAIYAMGWYRQAPGKERELVAAIRWSGASPYADSVKGRFTISRDNAKKTVYLQMNSLKPEDSAVYYCAADDLLDYDYWGQGTQVTVSA", "values": [{"measurement": "polyreactivity (PSR sort gate)", "value": "low polyreactivity"}]}, {"sequence": "QVQLVESGGGLVQAGGSLRLSCAASGLTFAYNTMGWYRQAPGKEREFVASISSSGGNTYYADAVKGRFTISRDNAKNTVYLQMNSLKPEDTAVYYCAAKKKYHYFASYKRFEYWGQGTQVTVSS", "values": [{"measurement": "polyreactivity (PSR sort gate)", "value": "low polyreactivity"}]}, {"sequence": "QVQLVESGGGLVQAGGSLRLSCAASGSIYYYTMGWYRQAPGKERELVAAISRSGTRTYYADSVKGRFTISRDNAMYTVYLQMNSLKPEDTAGYYCAARILPPGDNVDDDYWGQGTQVTVSS", "values": [{"measurement": "polyreactivity (PSR sort gate)", "value": "high polyreactivity"}]}, {"sequence": "QVQLVESGGGLVQAGGSLRLSCAASGRTFKNYAMGWYRQAPGKERELVAAITSGGITNYADSVKGRFTISRDNAKNTVYLQMNSLKPEDTAVYYCNTRRGWRDFDYWGQGTQVTVSS", "values": [{"measurement": "polyreactivity (PSR sort gate)", "value": "low polyreactivity"}]}, {"sequence": "QGQLGESGGGLVQAGGSLRLSCAASGGTFYYYAMGWYRHAPGKEREFVAAITWTGGRTYYADSVKGRFTISRDNAKNTVYLQMNSLKPEDSAVYYCAASDRYGGRDYWGQGTQVTVSS", "values": [{"measurement": "polyreactivity (PSR sort gate)", "value": "high polyreactivity"}]}, {"sequence": "QVQLVESGGGLVKAGCSLRLSCAASGRIFIVNAMGWYRQAPGKERELVAAISGSGGRTYYADSVKGRFTNSRDNAKNTVYLQMNSLKPEVTAVYYCAAVLRTQPRRYDYWGQGTQVTVSS", "values": [{"measurement": "polyreactivity (PSR sort gate)", "value": "high polyreactivity"}]}, {"sequence": "QVQLVESGGGLVQAGGSLRLSCAASGLIFKGYVMGWYRQAPGKERELVAAISRRGGSTYYADSVKGRFTISRDNAKNTVYLQMNSLKPEDTAVYYCATEVYDIDGWWGYDYWGQGTQVTVSS", "values": [{"measurement": "polyreactivity (PSR sort gate)", "value": "high polyreactivity"}]}, {"sequence": "QVQLVESGGGLVQAGGSLLLSCAASGFIFVSYAMGWYRQAPGKERELVAAIDRIGGITYYADSVKGRFTISRDNAKNTVYLQMNSLKREDTAVYYCAAAARFATVRVGREYYWGQGTQVTVSS", "values": [{"measurement": "polyreactivity (PSR sort gate)", "value": "low polyreactivity"}]}, {"sequence": "QVQLVESGGGLVQAGGSLRLSCAASGSIFSYYAMGWSRQAPGKERELVAAISRSGTSTYYADSVKGRFTISRDNAKNTVSLQMNSLKPEVNAVDYCNARWGFSRHRLMGYWGQGTQVSVSS", "values": [{"measurement": "polyreactivity (PSR sort gate)", "value": "high polyreactivity"}]}, {"sequence": "QVQLVESGGGLVQAGGSLRLSCAASGRIFNYNAMGWYRQAPGKERELVAAITSSGDSTNYADSVKGRFTISRDNAKNTVYLQMNSLKPEDTAVYYCNASSPYDYDWGQGTQVTVSS", "values": [{"measurement": "polyreactivity (PSR sort gate)", "value": "low polyreactivity"}]}, {"sequence": "QVQLVESGGGLVQAGGSLRLSCAASGSIFYPNVMGWYRQAPGKERELVATISRGGTTNYADSVKGRFTISRDNAKNTVYLQMNRLKPEDTAVYYCAAPIGDVYVGKGYDSWGQGTQVTVSS", "values": [{"measurement": "polyreactivity (PSR sort gate)", "value": "low polyreactivity"}]}, {"sequence": "QVQLVESGGGLVQAGGSLRLSCAASGRTFLYNAMGWYRQAPGKERELVAAISWSGGSTYYADSVKGRFTISRDNAKNTVYLQMIILKPEDTAVYYCAATGRRSGFYYWGQGTQVTVSS", "values": [{"measurement": "polyreactivity (PSR sort gate)", "value": "high polyreactivity"}]}, {"sequence": "QVQLVESGRGLVQAGGSLRLSCAASGRIFKAYAMGWYRQATGKERELVAAITRGGRTKYADSVKGRFTISRDNAKNTVYLQMNSLKPEDTAVYYCAAELPGGYLVDYDYWGHGTQVTVSS", "values": [{"measurement": "polyreactivity (PSR sort gate)", "value": "high polyreactivity"}]}, {"sequence": "QVQLVESGGGLVQAGGSLRLSCAASGLTFADYAMGWYRKAPGKERELVAAISRRGGSTYYADSVKGRFTISRDNAKNTVYLQMNSLKPEDTAVYYCNAAYVYGDQARGGYWGQGTQVTVSS", "values": [{"measurement": "polyreactivity (PSR sort gate)", "value": "high polyreactivity"}]}, {"sequence": "QVQLVESGGGLVQAGGSLRLSCAASGNIFSWYAKGWYRQAPGKERELVAAITSGGRTYYADSVKGRFTISRDNAKNTVYLQMNSLKPEDTAVYYCNAVSRLYNRRDYWVQGTQVTVSS", "values": [{"measurement": "polyreactivity (PSR sort gate)", "value": "high polyreactivity"}]}, {"sequence": "QVQLVESGGGLVQAGGSLRLSCAASGSTFYYYTMGWYRQATGKERELVAAITYRGGSTYADSVKGRFTISRDNAKNTVYLQMNSLKPEDTAVYYCAAVRRHPTHYDYWGQGTQVTVSS", "values": [{"measurement": "polyreactivity (PSR sort gate)", "value": "high polyreactivity"}]}, {"sequence": "QVQLVESGGGLVQAGGSLRLSCAASGFIFPGNVMGWYIQAPWKERELVAAISSGGGSTYYADSVKGRFTISRDNAKNSVYLQMNSLKPEDTAVYYCAKRTPRKWGQGTQVTVSS", "values": [{"measurement": "polyreactivity (PSR sort gate)", "value": "high polyreactivity"}]}, {"sequence": "QVQLVESGGRLVQAVASHRLSCAASGSIFRKYALGCYRQAPGKERELVAAIRSSGGSTYYADSVKGRFTISRDNAKNTVYLQMISLIPEDTAVYYCAARYYRPSRYDYWGQGTQVTVSS", "values": [{"measurement": "polyreactivity (PSR sort gate)", "value": "high polyreactivity"}]}, {"sequence": "QVQLVESAGGLVQAGGSLRLSCAASGFTFGWYAMGWYRQAPGKERELVAAISSTGGRTYYADSVKGRFTISRDNAKNTVYLQMNSLKPEDTAVYYCAAAYSYGTEYGYWGQGTQVTVSS", "values": [{"measurement": "polyreactivity (PSR sort gate)", "value": "high polyreactivity"}]}, {"sequence": "QVQLVESGGGLVQAGGSLRLSCAASGYTFWWYAMGWYRQAPGKEREFVAAIRFSGGTGTYYADSVKGRFTISRDNAKNTVYLQMNSLKPEDTAVYYCAADIAFRQWQVGDFDYWGQGTQVTVSS", "values": [{"measurement": "polyreactivity (PSR sort gate)", "value": "low polyreactivity"}]}, {"sequence": "QVQLVESGGGLVQAGGSLRLSCAASGRIFRPYTMGWYRQAPGKERELVAANSWRGGSTYYADSVKVRFTISLDNAKNTVYLLINSLKPEATAVYYCATYVKVIRTAGTRPKMGYWGQVTQVTVSS", "values": [{"measurement": "polyreactivity (PSR sort gate)", "value": "high polyreactivity"}]}, {"sequence": "QVQLVESGGGLVQAGGSLRLSCAASGFIFYGYMGWYRQAPGKERELVAAISYTGGSTYYADSVKGRFTISRDNAKNTVYLQMNSLKPEDTAVYYCARDWRTKWFGYWGQGTQVTVSS", "values": [{"measurement": "polyreactivity (PSR sort gate)", "value": "low polyreactivity"}]}, {"sequence": "QVQLVESGGGLVQAGGSLRLSCAASGRTFSVYTMGWYREAPGQERELVAAISSTGRTNYADSVKGRFTISRDNAKNTVYLQMNSQKPEATAVYDCNAGVRNSYTRHALVTAYYLYYYWRQGTQVTVSS", "values": [{"measurement": "polyreactivity (PSR sort gate)", "value": "high polyreactivity"}]}, {"sequence": "QVQLVESGGGLVQAGGSLRLSCAASGSTFRYYAMGWYRQAPGKERELVAAISWGAGSTYYADSVKGRFTISRDNAKNTVYLQMNSLKPEDTAVYYCNTLQITGWYDYWGQGTQVTVSS", "values": [{"measurement": "polyreactivity (PSR sort gate)", "value": "high polyreactivity"}]}, {"sequence": "QVQLVESGGGLVHAGGSLRLSCAASGSIFQGYAMGRYRQAPGKERDLVAAITASGGSTYYADSVKGRFTISRDNAKNTVYLQMNSLKPEDTAVYYCATDSYWRQDLYRYEYWGQGTQVTVSA", "values": [{"measurement": "polyreactivity (PSR sort gate)", "value": "high polyreactivity"}]}, {"sequence": "QVQLVESWGGLVQAGGSLRLSCAASGSLFTSNAMVWYRQAPGKEREFVAGIDYSTGGTSYADSVKGRFTISRDNAKNNVYLQMNRLLPEDTAVYYCNADRWLVYVHTWEYDYWGQGTQVTVSS", "values": [{"measurement": "polyreactivity (PSR sort gate)", "value": "low polyreactivity"}]}, {"sequence": "QVQLVESGGGLVQAGGSLRISCAASGYTFPFYTMGWYRQAPGKERELVAAINSGGSTYYADSVKGRFTISRDNAKNTVYLQMNRLKPEDTAVYYCAVEGGFRVRYQAQYRFYYWGQGTEVTVSS", "values": [{"measurement": "polyreactivity (PSR sort gate)", "value": "high polyreactivity"}]}, {"sequence": "QVQLVESGGGLVQAGGSLRLSCAASGRIFVINAMGWYRQAPGKERELVAAIRSGGSTNYADSVKGRFTISRDNAKNTVYLQMNSLKPEDTAVNYCAARNSGRRSKAYDFKMNYWGQGTQVTVSS", "values": [{"measurement": "polyreactivity (PSR sort gate)", "value": "high polyreactivity"}]}, {"sequence": "QGQLVESGGGLVQAGGSLRLSCAASGISLKYAMGWYRQAPGKERELVASISSRGTSTYYADSVKGRFTISRDNAMNTVYLQMNSLKPEDTAVYYCNTVPPYWWGYWYKGDHWGQGTQGTVSS", "values": [{"measurement": "polyreactivity (PSR sort gate)", "value": "high polyreactivity"}]}, {"sequence": "QVQLVESGGGLVQAGGSLRLSCAASGSIFVNYAMGWYRQAPGKERELVAAITSRGTRTYYADSVKGRFTISRDNAKNTVYLQMNSLKPEDTAVYYCAAKQVSRGVAAYDYWGQGTQVTVSS", "values": [{"measurement": "polyreactivity (PSR sort gate)", "value": "high polyreactivity"}]}]}
